Target: IgM-BCR (Ighm) (mouse (endogenous in primary B cells))

In the case of “recombinant mouse galectin-9 (rGal9, E. coli-derived, R&D Systems) (from UniProt O08573 1-353) (natural protein)”, the median diffusion coefficient of IgM in galectin-9-high regions (against 0.028 μm^2/s in galectin-9-low regions), single-particle tracking on Gal9-KO B cells treated with fluorescently labeled rGal9 is reported as 0.012 μm^2/s.

Source: paper PMC6098130
